Assay results as given in article PMC9672952.

Columns and labels:
[1] = biological target: RseP from Enterococcus faecium P21, C-terminal 6× His-tag (Enterococcus faecium P21) (UniProt I3U2R6)
[2] = biological target: EfmRseP with substitution P369A (Enterococcus faecium P21) (UniProt I3U2R6)
[3] = biological target: Fusion of EfmRseP (1–170) and LpRseP (171–425) (Enterococcus faecium P21 | Lactiplantibacillus plantarum WCFS1) (UniProt I3U2R6)
[4] = biological target: Fusion of EfmRseP (1–32) and LpRseP (33–425) (Enterococcus faecium P21 | Lactiplantibacillus plantarum WCFS1) (UniProt I3U2R6)
[5] = biological target: EfmRseP with substitution H22A (Enterococcus faecium P21) (UniProt I3U2R6)
[6] = biological target: EfmRseP with substitution E19A (Enterococcus faecium P21) (UniProt I3U2R6)
[7] = biological target: EfmRseP with substitution H18A (Enterococcus faecium P21) (UniProt I3U2R6)
[8] = biological target: Fusion of LpRseP (1–201, 222–425) and EfmRseP (202–221) (Lactiplantibacillus plantarum WCFS1 | Enterococcus faecium P21) (UniProt I3U2R6)
[9] = biological target: EfmRseP with the triple alanine substitution of the HExxH motif (Enterococcus faecium P21) (UniProt I3U2R6)
[10] = biological target: Fusion of EfmRseP (1–325) and LpRseP (326–425) (Enterococcus faecium P21 | Lactiplantibacillus plantarum WCFS1) (UniProt I3U2R6)
[11] = biological target: Truncation of EfmRseP (1–39, 139–422) Δ40–138 (Enterococcus faecium P21) (UniProt I3U2R6)
[12] = biological target: Fusion of LpRseP (1–201, 328–425) and EfmRseP (202–327) (Lactiplantibacillus plantarum WCFS1 | Enterococcus faecium P21) (UniProt I3U2R6)
[13] = biological target: Fusion of LpRseP (1–221) and EfmRseP (222–422) (Lactiplantibacillus plantarum WCFS1 | Enterococcus faecium P21) (UniProt I3U2R6)
[14] = biological target: EfmRseP with substitution D372A (Enterococcus faecium P21) (UniProt I3U2R6)
[15] = biological target: Fusion of LpRseP (1–171, 222–425) and EfmRseP (172–221) (Lactiplantibacillus plantarum WCFS1 | Enterococcus faecium P21) (UniProt I3U2R6)
[16] = biological target: Fusion of LpRseP (1–171, 326–425) and EfmRseP (172–325) (Lactiplantibacillus plantarum WCFS1 | Enterococcus faecium P21) (UniProt I3U2R6)
[17] = biological target: Fusion of LpRseP (1–328) and EfmRseP (329–422) (Lactiplantibacillus plantarum WCFS1 | Enterococcus faecium P21) (UniProt I3U2R6)
[18] = biological target: Fusion of EfmRseP (1–200) and LpRseP (201–425) (Enterococcus faecium P21 | Lactiplantibacillus plantarum WCFS1) (UniProt I3U2R6)
[19] = biological target: EfmRseP with substitution N359A (Enterococcus faecium P21) (UniProt I3U2R6)
[20] = biological target: EfmRseP with substitution N364A (Enterococcus faecium P21) (UniProt I3U2R6)
[21] = biological target: Fusion of EfmRseP (1–221) and LpRseP (222–425) (Enterococcus faecium P21 | Lactiplantibacillus plantarum WCFS1) (UniProt I3U2R6)
[22] = biological target: RseP from Lactiplantibacillus plantarum WCFS1, C-terminal 6× His-tag (Lactiplantibacillus plantarum WCFS1)
[23] = biological target: EfmRseP with substitution P367A (Enterococcus faecium P21) (UniProt I3U2R6)
[24] = biological target: RseP from Lactiplantibacillus plantarum WCFS1, without His-tag (Lactiplantibacillus plantarum WCFS1)
[25] = biological target: RseP from Enterococcus faecium P21, without His-tag (Enterococcus faecium P21) (UniProt I3U2R6)
[26] = biological target: RseP from Staphylococcus aureus ATCC 14458, without His-tag (Staphylococcus aureus ATCC 14458)
[27] = biological target: RseP from Lactococcus lactis IL1403, without His-tag (Lactococcus lactis IL1403)
[28] = biological target: RseP from Staphylococcus arlettae LMGT 4134, without His-tag (Staphylococcus arlettae LMGT 4134)
[29] = biological target: RseP from Staphylococcus haemolyticus, without His-tag (Staphylococcus haemolyticus)
[30] = biological target: RseP from Enterococcus faecalis V583, without His-tag (Enterococcus faecalis V583) (UniProt Q9RPP2)

Substance: Enterocin K1 (peptide)
- MIC50 of EntK1 (growth inhibition, microtiter plate) towards L. plantarum expressing this RseP variant [1]: < 0.002 µM
- MIC50 of EntK1 (growth inhibition, microtiter plate) towards L. plantarum expressing this RseP variant [2]: < 0.02 µM
- MIC50 of EntK1 (growth inhibition, microtiter plate) towards L. plantarum expressing this RseP variant [3]: > 22 µM
- MIC50 of EntK1 (growth inhibition, microtiter plate) towards L. plantarum expressing this RseP variant; footnote: low expression may contribute [4]: > 22 µM
- MIC50 of EntK1 (growth inhibition, microtiter plate) towards L. plantarum expressing this RseP variant [5]: 0.01 µM
- MIC50 of EntK1 (growth inhibition, microtiter plate) towards L. plantarum expressing this RseP variant [6]: 0.01 µM
- MIC50 of EntK1 (growth inhibition, microtiter plate) towards L. plantarum expressing this RseP variant [7]: 0.02 µM
- MIC50 of EntK1 (growth inhibition, microtiter plate) towards L. plantarum expressing this RseP variant [8]: > 22 µM
- MIC50 of EntK1 (growth inhibition, microtiter plate) towards L. plantarum expressing this RseP variant [9]: 2.7 µM
- MIC50 of EntK1 (growth inhibition, microtiter plate) towards L. plantarum expressing this RseP variant [10]: < 0.002 µM
- MIC50 of EntK1 (growth inhibition, microtiter plate) towards L. plantarum expressing this RseP variant [11]: 2.7 µM
- MIC50 of EntK1 (growth inhibition, microtiter plate) towards L. plantarum expressing this RseP variant [12]: 0.09 µM
- MIC50 of EntK1 (growth inhibition, microtiter plate) towards L. plantarum expressing this RseP variant [13]: > 22 µM
- MIC50 of EntK1 (growth inhibition, microtiter plate) towards L. plantarum expressing this RseP variant [14]: 0.7 µM
- MIC50 of EntK1 (growth inhibition, microtiter plate) towards L. plantarum expressing this RseP variant [15]: > 22 µM
- MIC50 of EntK1 (growth inhibition, microtiter plate) towards L. plantarum expressing this RseP variant [16]: < 0.002 µM
- MIC50 of EntK1 (growth inhibition, microtiter plate) towards L. plantarum expressing this RseP variant [17]: > 22 µM
- MIC50 of EntK1 (growth inhibition, microtiter plate) towards L. plantarum expressing this RseP variant [18]: > 22 µM
- MIC50 of EntK1 (growth inhibition, microtiter plate) towards L. plantarum expressing this RseP variant [19]: > 22 µM
- MIC50 of EntK1 (growth inhibition, microtiter plate) towards L. plantarum expressing this RseP variant [20]: 0.004 µM
- MIC50 of EntK1 (growth inhibition, microtiter plate) towards L. plantarum expressing this RseP variant [21]: 0.7 µM
- MIC50 of EntK1 (growth inhibition, microtiter plate) towards L. plantarum expressing this RseP variant [22]: > 22 µM
- MIC50 of EntK1 (growth inhibition, microtiter plate) towards L. plantarum expressing this RseP variant [23]: 0.004 µM
- MIC50 of EntK1 (growth inhibition, microtiter plate) towards L. plantarum expressing this RseP [24]: > 22 µM
- MIC50 of EntK1 (growth inhibition, microtiter plate) towards L. plantarum expressing this RseP [25]: 0.01 µM
- MIC50 of EntK1 (growth inhibition, microtiter plate) towards L. plantarum expressing this RseP; footnote: low expression may contribute [26]: > 22 µM
- MIC50 of EntK1 (growth inhibition, microtiter plate) towards L. plantarum expressing this RseP [27]: 0.09 µM
- MIC50 of EntK1 (growth inhibition, microtiter plate) towards L. plantarum expressing this RseP; footnote: low expression may contribute [28]: > 22 µM
- MIC50 of EntK1 (growth inhibition, microtiter plate) towards L. plantarum expressing this RseP [29]: 0.17 µM
- MIC50 of EntK1 (growth inhibition, microtiter plate) towards L. plantarum expressing this RseP [30]: 0.04 µM
